Laboratory results taken from FireProtDB (doi:10.1021/bi00416a052).

Settings: Escherichia coli (strain K12), Thermal, CD, NaCl 0.1 M, reversible: yes, whole UniProt chain shown

B1: Ribonuclease HI wild type, P0A7Y4 (protein)
chain: MLKQVEIFTDGSCLGNPGPGGYGAILRYRGREKTFSAGYTRTTNNRMELMAAIVALEALKEHCEVILSTDSQYVRQGITQWIHNWKKRGWKTADKKPVKNVDLWQRLDAALGQHQIKWEWVKGHAGHPENERCDELARAAAMNPTLEDTGYQVEV
- Tm (pH 3, glycine-HCl 10 mM): 49.8 °C
- Tm (pH 5.5, Sodium acetate 20 mM): 52 °C
